Data set [1] has as its target T1, TbTRF-lMyb280-382 (Trypanosoma brucei) (UniProt Q4VHG6).
T1 sequence: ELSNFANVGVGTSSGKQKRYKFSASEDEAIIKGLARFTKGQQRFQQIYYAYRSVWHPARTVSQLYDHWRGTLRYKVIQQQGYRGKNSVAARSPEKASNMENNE
Briefly: EMSA.

Data set [2] addresses T2, TbTRF-lMyb280-382 R298E R298E (Trypanosoma brucei) (UniProt Q4VHG6).
T2 sequence: T1 sequence with R19E
Briefly: EMSA.

Residue numbers refer to the chain shown, from its start.

Usually Kd stands for the free concentration of one partner at which half of the binding sites on the other are occupied at equilibrium, for simple one-to-one binding. A high value points to lower affinity. With “CCCUAACCCUAACCCUAACCCUAACCCUAACCCUAACCCUAACCCUAACCCUAACCCUAACCCUAACCCUAA [ss(CCCUAA)12]”, the Kd is 17200 nM in data set [1] and 36 nM in data set [2].

Take “UUAGGGUUAGGGUUAGGGUUAGGGUUAGGGUUAGGGUUAGGGUUAGGGUUAGGGUUAGGGUUAGGGUUAGGG [ss(UUAGGG)12]”: the figures for the Kd in data set [1] and in data set [2] were 268 nM and 5 nM, respectively.
